Laboratory results reported in patent US8017152B2, “Cores and microcapsules suitable for parenteral administration as well as process for their manufacture” (Stratosphere Pharma AB, priority 2005, dated 2011).

Assay: Protein integrity of encapsulated hGH by size exclusion HPLC (SEC-HPLC): dimer, polymer and aggregate forms
Format: physicochemical
Conditions: before encapsulation
Experimental: Three batches of maltodextrin microspheres were prepared (50% W/W, 1 ml, 1 ml and 1.8 ml, respectively, in sodium acetate, 10 mM, pH 6.4, 2 mM zinc acetate) in which the GH was suspended manually. The compositions were transferred to Miglyol 829 (10, 20 and 30 ml, respectively), W/O emulsions were created by homogenization (Turrax) and left under refrigeration over night (about 16 hours), then centrifuged (Sorvall SS34, 7000 rpm, 10 min) and washed three times with cold acetone (about 30 g, centrifugation 5 min), allowed to air dry and sieved. The batches were sieved and then pooled. […] The protein quality was determined after centrifugation using HPLC size exlusion chromatography (SEC-HPLC, TSK2000 SWxl, Tosoh Corporation) according to Reslow et al. (supra). […] The fractions were pooled to provide about 0.57 g of cores.
The core loading was about 75% on the pooled batches. Protein integrity was determined after suspending the cores in a buffer (50 mM HEPES, 10 mM EDTA, pH 7.3). After gentle mixing for about one hour the cores had dissolved.
Free flowing single core microcapsules were obtained as evaluated by light microscopy. Protein integrity was determined essentially according to Reslow et al. (supra), including removal of the PLGA coating with a mixture of methylene chloride and acetone.

For Human growth hormone [hGH], the “dimer content of hGH starting material / before immobilisation” value was “approximately 2.4%” and the “dimer content of hGH starting material / before immobilisation” value (listed as GH) was “about 2.4%”.
